Experimental findings from PMC9726891, “SESAME-catalyzed H3T11 phosphorylation inhibits Dot1-catalyzed H3K79me3 to regulate autophagy and telomere silencing” (Nature Communications, 2022) are described below.

Experiment [1] has as its target Dot1 (UniProt Q04089). The experiment can be described thus: H3-FLAG nucleosome IP, Dot1 blot. To be noted: reference: WT H3-FLAG; sites T11.
In experiment [2] the target is Dot1 (UniProt Q04089). The experiment can be described thus: Dot1-FLAG IP, anti-H3/H4 blot of nucleosomes. The conditions noted are these: reference: wild type H3; sites T11.
Another experiment deals with Set1 (UniProt P38827). The experiment can be described thus: biotinylated peptide pull-down, immunoblot. The conditions noted are these: reference: unmodified H3 (1-23) peptide; sites T11. A general note: In western blotting, separated proteins are transferred to a membrane and probed.
The target of experiment [3] is Dot1 (UniProt Q04089). Description: biotinylated peptide pull-down, immunoblot. The conditions noted are these: reference: unmodified H3 (1-23) peptide; sites T11.
Another experiment concerns the target Set2 (UniProt P46995). The experiment can be described thus: biotinylated peptide pull-down, immunoblot. The conditions noted are these: reference: unmodified H3 (1-23) peptide; sites T11.
The target of experiment [4] is T1, purified endogenous SIR complex (Sir2-FLAG) (S. cerevisiae (endogenous in yeast), UniProt P06700 1-562; P06701 1-978; P11978 1-1358).
T1 construct: NAD-dependent histone deacetylase Sir2, S. cerevisiae; Sir3, S. cerevisiae; named as a subunit of the SIR complex in the introduction; Sir4, S. cerevisiae; also called silent information regulator complex; not shown: FLAG, C-terminal, kept; copies: + +
T1 sequence (P06700 whole entry, chain 1 of 3): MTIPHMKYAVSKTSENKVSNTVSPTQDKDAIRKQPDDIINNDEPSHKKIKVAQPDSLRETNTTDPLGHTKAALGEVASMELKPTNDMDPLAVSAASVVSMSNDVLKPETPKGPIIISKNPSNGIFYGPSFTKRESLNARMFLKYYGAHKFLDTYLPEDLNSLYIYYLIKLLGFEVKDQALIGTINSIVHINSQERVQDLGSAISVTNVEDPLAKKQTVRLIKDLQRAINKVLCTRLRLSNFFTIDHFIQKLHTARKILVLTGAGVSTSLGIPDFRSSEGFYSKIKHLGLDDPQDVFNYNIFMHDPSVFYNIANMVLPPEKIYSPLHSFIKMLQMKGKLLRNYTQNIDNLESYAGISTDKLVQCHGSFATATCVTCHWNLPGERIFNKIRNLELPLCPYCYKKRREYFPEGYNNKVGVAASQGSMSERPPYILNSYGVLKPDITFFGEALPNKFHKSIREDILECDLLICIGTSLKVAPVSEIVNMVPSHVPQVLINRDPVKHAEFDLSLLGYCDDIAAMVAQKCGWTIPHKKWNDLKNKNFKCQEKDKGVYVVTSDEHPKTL
T1 sequence (P06701 whole entry, chain 2 of 3): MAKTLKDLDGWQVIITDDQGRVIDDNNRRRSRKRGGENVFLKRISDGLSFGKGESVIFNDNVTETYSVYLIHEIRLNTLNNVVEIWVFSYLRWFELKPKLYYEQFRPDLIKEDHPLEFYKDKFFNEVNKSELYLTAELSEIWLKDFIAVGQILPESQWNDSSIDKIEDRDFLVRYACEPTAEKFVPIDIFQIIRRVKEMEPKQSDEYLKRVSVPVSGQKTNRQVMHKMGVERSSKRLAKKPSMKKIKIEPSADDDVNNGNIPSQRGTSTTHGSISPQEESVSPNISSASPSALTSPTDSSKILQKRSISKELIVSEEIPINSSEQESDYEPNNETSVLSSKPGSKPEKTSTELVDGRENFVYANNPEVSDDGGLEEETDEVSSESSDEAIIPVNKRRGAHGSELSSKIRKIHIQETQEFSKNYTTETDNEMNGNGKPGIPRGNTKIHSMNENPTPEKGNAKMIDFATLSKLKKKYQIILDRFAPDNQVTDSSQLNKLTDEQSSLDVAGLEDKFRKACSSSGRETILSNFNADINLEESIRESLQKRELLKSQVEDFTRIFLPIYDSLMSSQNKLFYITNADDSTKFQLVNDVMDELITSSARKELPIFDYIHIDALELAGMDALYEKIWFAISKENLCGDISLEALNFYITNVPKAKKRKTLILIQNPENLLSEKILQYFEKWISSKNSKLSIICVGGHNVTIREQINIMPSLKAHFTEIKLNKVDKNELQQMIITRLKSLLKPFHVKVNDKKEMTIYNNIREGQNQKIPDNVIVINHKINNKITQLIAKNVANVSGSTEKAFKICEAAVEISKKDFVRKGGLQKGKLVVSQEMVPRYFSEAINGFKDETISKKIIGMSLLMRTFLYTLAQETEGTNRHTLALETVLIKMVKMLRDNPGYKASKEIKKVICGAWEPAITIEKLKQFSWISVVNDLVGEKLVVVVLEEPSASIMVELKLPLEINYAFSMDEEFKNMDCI
T1 sequence (P11978 whole entry, chain 3 of 3): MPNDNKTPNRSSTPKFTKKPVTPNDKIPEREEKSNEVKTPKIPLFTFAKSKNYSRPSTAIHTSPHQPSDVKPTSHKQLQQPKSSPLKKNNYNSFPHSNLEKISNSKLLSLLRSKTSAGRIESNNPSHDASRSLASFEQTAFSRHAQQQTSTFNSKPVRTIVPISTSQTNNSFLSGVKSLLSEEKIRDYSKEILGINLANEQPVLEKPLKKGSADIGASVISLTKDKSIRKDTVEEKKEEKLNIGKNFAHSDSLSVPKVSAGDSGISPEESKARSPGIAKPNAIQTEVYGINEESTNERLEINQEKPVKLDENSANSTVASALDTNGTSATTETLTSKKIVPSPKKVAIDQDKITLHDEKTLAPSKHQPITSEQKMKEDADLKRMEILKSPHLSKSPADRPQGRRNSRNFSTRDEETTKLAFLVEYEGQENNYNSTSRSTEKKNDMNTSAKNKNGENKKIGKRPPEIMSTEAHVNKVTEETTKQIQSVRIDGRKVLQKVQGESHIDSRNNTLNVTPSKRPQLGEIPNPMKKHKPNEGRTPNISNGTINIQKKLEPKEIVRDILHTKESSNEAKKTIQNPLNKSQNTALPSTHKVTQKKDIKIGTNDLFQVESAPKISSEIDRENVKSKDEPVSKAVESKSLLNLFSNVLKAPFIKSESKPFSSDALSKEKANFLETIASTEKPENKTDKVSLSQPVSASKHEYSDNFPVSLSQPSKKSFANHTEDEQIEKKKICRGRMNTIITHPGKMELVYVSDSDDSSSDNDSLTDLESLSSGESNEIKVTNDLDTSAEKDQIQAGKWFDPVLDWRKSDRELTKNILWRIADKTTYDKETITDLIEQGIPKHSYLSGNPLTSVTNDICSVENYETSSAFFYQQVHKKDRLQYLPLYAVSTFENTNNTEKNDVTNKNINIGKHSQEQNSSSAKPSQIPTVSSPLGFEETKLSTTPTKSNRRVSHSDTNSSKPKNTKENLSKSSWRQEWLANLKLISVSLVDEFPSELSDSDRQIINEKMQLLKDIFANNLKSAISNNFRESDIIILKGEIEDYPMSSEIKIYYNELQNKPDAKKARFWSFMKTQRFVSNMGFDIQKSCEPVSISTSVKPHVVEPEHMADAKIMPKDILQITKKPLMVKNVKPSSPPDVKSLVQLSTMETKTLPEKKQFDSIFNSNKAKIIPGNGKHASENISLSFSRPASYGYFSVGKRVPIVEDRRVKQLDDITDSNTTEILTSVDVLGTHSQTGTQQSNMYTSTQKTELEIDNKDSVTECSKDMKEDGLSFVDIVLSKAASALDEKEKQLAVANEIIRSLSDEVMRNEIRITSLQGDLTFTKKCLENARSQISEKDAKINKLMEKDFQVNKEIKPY
Description: pull-down; 1.0 µg biotinylated histone peptide incubated with 1 µg purified SIR complex (Sir2-FLAG) in 50 mM Tris-HCl pH 7.5, 250 mM NaCl, 0.1% NP-40, overnight at 4 °C; Streptavidin beads; immunoblot. The conditions noted are these: both partners purified.

Where no end group is shown, it is not given here.

Turning to “histone H3 (from UniProt P61830) H3T11A-FLAG”, in the experiment with Dot1 [1], the “binding against the reference” value was “stronger”.
As to histone H3 (from UniProt P61830) H3T11A, the “binding against the reference” value with Dot1 [2] was “stronger”.
For the molecule “histone H3 1-23 (from UniProt P61830) H3pT11 (1-23) peptide”, the “binding against the reference” value with Set1 is recorded as “same”; with Dot1 [3] it was “weaker”; with Set2 it was “same”.

B1: Unmodified H3 (72–85) peptide (peptide)
peptide: REIAQDFKTDLRFQ
modifications: also: biotin (position not given here)
notes: histone H3 residues 72-85; also called unmodified H3 peptide; source: synthetic peptide (biotinylated histone peptide)
For B1, in experiment [4], the binding result is “binds”.
